Assays:
MBP-ApFoxO DBD [1] = biological target: T1, MBP-ApFoxO DBD (Acyrthosiphon pisum, UniProt A0A8R1VZ87 89-178); assay: EMSA; 0.5 and 5 ug protein; EMSA: room temperature, 30 min; 6% native PAGE in 0.5x TBE, 60 V, 4 C; binding buffer, salt and pH not stated; conditions: protein: recombinant; tags: N-terminal MBP (pMAL-c2x); label: 5' biotin
MBP-ApFoxO DBD [2] = biological target: T1, MBP-ApFoxO DBD; assay: EMSA; 0.5 and 5 ug protein; concentration-dependent shift; EMSA: room temperature, 30 min; 6% native PAGE in 0.5x TBE, 60 V, 4 C; binding buffer, salt and pH not stated; conditions: protein: recombinant; tags: N-terminal MBP (pMAL-c2x); label: 5' biotin
MBP-ApFoxO DBD [3] = biological target: T1, MBP-ApFoxO DBD; assay: EMSA; 0.5 ug protein, 5x labeled mutant probe; EMSA: room temperature, 30 min; 6% native PAGE in 0.5x TBE, 60 V, 4 C; binding buffer, salt and pH not stated; conditions: protein: recombinant; tags: N-terminal MBP (pMAL-c2x); label: 5' biotin
MBP-ApFoxO DBD [4] = biological target: T1, MBP-ApFoxO DBD; assay: competition; 5x and 25x unlabeled probe vs labeled FRE2; shift greatly reduced; EMSA: room temperature, 30 min; 6% native PAGE in 0.5x TBE, 60 V, 4 C; binding buffer, salt and pH not stated; conditions: protein: recombinant; tags: N-terminal MBP (pMAL-c2x)

T1 sequence (A0A8R1VZ87 entry or part of it): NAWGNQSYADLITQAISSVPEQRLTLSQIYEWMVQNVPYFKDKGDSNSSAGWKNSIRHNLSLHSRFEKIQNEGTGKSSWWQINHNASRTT

B1: ApHh promoter FRE1 probe (dsDNA)
DNA 1: TTGACTGTAGTATGTAAACATTTCTGAACTCCA
DNA 2: TGGAGTTCAGAAATGTTTACATACTACAGTCAA
binding result (MBP-ApFoxO DBD [1]): no binding

B2: ApHh promoter FRE2 probe (dsDNA)
DNA 1: GATATAGTTTACATGTTTACATGACGGCAGAGA
DNA 2: TCTCTGCCGTCATGTAAACATGTAAACTATATC
binding result (MBP-ApFoxO DBD [2]): binds

B3: FRE2 mutant (FRE_m) (dsDNA)
DNA 1: GATATAGTTTACACACCCGTATGACGGCAGAGA
DNA 2: TCTCTGCCGTCATACGGGTGTGTAAACTATATC
binding result (MBP-ApFoxO DBD [3]): no binding

B4: FRE2 unlabeled competitor (dsDNA)
DNA 1: GATATAGTTTACATGTTTACATGACGGCAGAGA
DNA 2: TCTCTGCCGTCATGTAAACATGTAAACTATATC
binding result (MBP-ApFoxO DBD [4]): binds
